From PMC9774438 (2022)

Assays:
[1] = molecular target: T1, pept_1545 (synthetic construct); assay: Celestine Blue B chlorinating activity assay (varying Cl-, competitive inhibition)
T1 chain: FLIGKAIKRKFCLRSVWNA

[2] = molecular target: T2, Hm-AMP8 (synthetic construct); assay: Amplex Red peroxidase activity assay (varying Amplex Red, mixed inhibition)
T2 chain: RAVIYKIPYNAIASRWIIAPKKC

[3] = molecular target: T1, pept_1545; assay: as above
[4] = molecular target: T2, Hm-AMP8; assay: Amplex Red peroxidase activity assay (varying H2O2, uncompetitive inhibition)
[5] = molecular target: T1, pept_1545; assay: as above
[6] = molecular target: T2, Hm-AMP8; assay: Celestine Blue B chlorinating activity assay (varying H2O2, uncompetitive inhibition)
[7] = molecular target: T1, pept_1545; assay: as above
[8] = molecular target: T2, Hm-AMP8; assay: Celestine Blue B chlorinating activity assay (varying Cl-, uncompetitive inhibition)

B1: Myeloperoxidase (protein)
chain: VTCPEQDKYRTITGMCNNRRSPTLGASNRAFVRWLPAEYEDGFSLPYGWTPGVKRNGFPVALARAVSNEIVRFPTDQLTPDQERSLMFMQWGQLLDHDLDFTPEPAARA
Ki [1]: 19.5 µM
Ki [2]: 1.1 µM
Ki [3]: 48.3 µM
Ki [4]: 1.79 µM
Ki [5]: 52.8 µM
Ki [6]: 0.28 µM
Ki [7]: 10.8 µM
Ki [8]: 0.42 µM
